Positions count from the first letter of the chain named. Where “and” joins values, the source holds several entries; their conditions need not be identical. Equal entries are not always repeated.
Key:
[1] = target: T1, bacterially produced cynomolgus monkey IL-6 (cynomolgus monkey, UniProt P79341 28-212, limits assumed); assay: off-rate of Fab 111A7 variant on bact-cy IL-6 (binding kinetics, SPR presumed; n = 1)
T1 construct: also called bact-cy IL-6; HIS-cyIL-6

[2] = target: IL-6 (bact-hIL-6, euk-hIL-6 and bact-cy IL-6; 'average binding' of Table 21); assay: average binding level in the off-rate screen (unit not given; n = 1)
[3] = target: IL-6 surfaces of Table 8 (Bact, euk, cyno), average; assay: SPR (Biacore), off-rate screen
human IL-6 = human IL-6 (human, UniProt P05231 30-212); assay: cell-based or functional assay
[4] = target: T2, eukaryotically produced human IL-6 (human, UniProt P05231 30-212); assay: SPR (Biacore), purified Fab
T2 construct: Immobilised on the Biacore chip; also called Euk IL-6; EUK IL-6 (3-1)

[5] = target: T3, bacterially produced human IL-6 (human, UniProt P05231 30-212); assay: SPR (Biacore), purified Fab
T3 construct: Immobilised on the Biacore chip; also called BACT IL-6 (2-1); bactIL-6

[6] = target: T4, human IL-6 (as added in the B9 and 7TD1 bioassays) (human, UniProt P05231 30-212); assay: cell-based or functional assay
[7] = target: T4, human IL-6 (as added in the B9 and 7TD1 …); assay: cell-based or functional assay; remark: listed apart in the source
[8] = target: T4, human IL-6 (as added in the B9 and 7TD1 …); assay: cell-based or functional assay; remark: listed apart in the source

B1: Fab 111A7 with the CDR3 methionine changed to C (Fab, V domains shown)
VH: EVQLLESGGGLVQPGGSLRLSCAASGFTFSSYAMSWVRQAPGKGPEWVSRISAGGGSTYYGDSVKGRFTISRDNSKNTLYLQMNSLRAEDTAVYYCANRAGWGCGDYWGQGTLVTVSS
VL: QTVVTQEPSFSVSPGGTVTLTCGLSSGSVTASNYPGWYQQTPGQAPRALIYSTNDRHSGVPDRFSGSISGNKAALTITGAQAEDEADYYCALDIGDITEFGGGTQLTVL
koff [1]: 9.46e-05 s⁻¹
average binding [2]: 42

B2: Fab 111A7 with the CDR3 methionine changed to N (Fab, V domains shown)
VH: B1 VH with C104N
VL: B1 VL
koff [1]: 0.000207 s⁻¹
average binding [2]: 137

B3: Fab 111A7 with the CDR3 methionine changed to W (Fab, V domains shown)
VH: B1 VH with C104W
VL: B1 VL
koff [1]: 0.000177 s⁻¹
average binding [2]: 26

B4: Fab 111A7 with the CDR3 methionine changed to K (Fab, V domains shown)
VH: B1 VH with C104K
VL: B1 VL
koff [1]: 0.00417 s⁻¹
average binding [2]: 81

B5: Fab 111A7 with the CDR3 methionine changed to R (Fab, V domains shown)
VH: B1 VH with C104R
VL: B1 VL
koff [1]: 0.000121 s⁻¹
average binding [2]: 64

B6: Fab 111A7 with the CDR3 methionine changed to F (Fab, V domains shown)
VH: B1 VH with C104F
VL: B1 VL
koff [1]: 0.000203 s⁻¹
average binding [2]: 144

B7: 61H7 (Fab, V domains shown)
VH: EVQLVESGGGLVQPGGSLRLSCAASGFTFSSYRMYWVRQPPGKGLEWVSAISAGGGSTYYGDSVKGRFTISRDNAKNTVYLQMNSLKPEDTAVYYCANRAGWGMGDYWGQGTQVTVSS
VL: QTVVTQEPSLSVSPGGTVTLTCGLSSGSVTASNYPGWFQQTPGQAPRALIYSTNDRHSGVPSRFSGSISGNKAALTITGAQPEDEADYYCALDIGDITEFGGGTHLTVLG
Average binding (RU) [3]: 635 RU

B8: 61H7 antibody (antibody, V domains shown)
VH: B7 VH
VL: B7 VL
IC50, growth of IL-6-dependent 7TD1 cells with 75 pg/ml human IL-6 (human IL-6): < 1 pM

B9: 104C1 (antibody, V domains shown)
VH: B7 VH with V5L, R33A, P40A, A50R
VL: B7 VL with L10F, F38Y, S62D, P82A, E83D, A86S, H105K
IC50, growth of IL-6-dependent 7TD1 cells with 75 pg/ml human IL-6 (human IL-6): < 1 pM

B10: 111B1 (antibody, V domains shown)
VH: B1 VH with S35Y, A40P, P45L, C104M
VL: B1 VL with Y38F, S69L
IC50, growth of IL-6-dependent 7TD1 cells with 75 pg/ml human IL-6 (human IL-6): < 1 pM

B11: 24D10 (Fab, V domains shown)
VH: QLQVVESGGGLVQPGGSLRLSCAASGFTFSSYAMSWVRQAPGKGPEWVSRISSGGGSTSYADSVKGRFTISRDNAKNTLYLQMNSLKPEDTAVYYCANRAGWGMGDYWGQGTQVTVSS
VL: B7 VL
notes: Purified Fab
Kd [4]: 0.41 nM
koff [4]: 0.0001 s⁻¹
kon [4]: 250000 M⁻¹ s⁻¹
Kd [5]: 0.5 nM
koff [5]: 0.0001 s⁻¹
kon [5]: 210000 M⁻¹ s⁻¹

B12: 61H7 (Fab, V domains shown)
VH: B7 VH
VL: B7 VL
notes: Fab; also called Fab 61H7
Kd [4]: 0.45 nM
koff [4]: 5.5e-05 s⁻¹
kon [4]: 120000 M⁻¹ s⁻¹
Kd [5]: 0.017 nM
koff [5]: 2e-06 s⁻¹
kon [5]: 120000 M⁻¹ s⁻¹

B13: 55H1 (Fab, V domains shown)
VH: EVQLVESGGGLVQPGGSLRLSCAASGFTFSSYAMSWVRQAPGKGLEWVSRISSGGISTYYADSVKGRFTISRDNAKNTLYLQMNSLKPEDTAVYYCVRYAWGVQWAFDFWGQGTQVTVSS
VL: AQSVVTQPPSVSGSPGKTVTISCAGTSSDVGYGNYVSWYQQLPGMAPKLLIYDVSKRASGIADRFSGSKSGNTASLTISGLQSEDEADYVCASYRRGGTAVFGGGTHLTVLG
Average binding (RU) [3]: 773 RU and 770 RU and 873 RU

B14: 129D3 antibody (antibody, V domains shown)
VH: EVQLQESGPGLVKPSQTLSLTCTVSGGSITSRYYAWSWIRQPPGKGLEWIGVIDYDGDTYYSPSLKSRVSISWDTSKNQFSLKLSSVTPADTAVYYCARDPDVVTGFHYDYWGQGTMVTVSS
VL: QSALTQPPSVSGTPGQSVTISCAGANNDIGTYAYVSWYQQLPGTAPKLMIYKVTTRASGIPDRFSGSKSGNTASLTISGLQAEDEADYYCASYRNFNNAVFGTGTKLTVL
IC50, growth of IL-6-dependent 7TD1 cells with 75 pg/ml human IL-6 (human IL-6): < 1 pM
IC50, proliferation of IL-6-dependent B9 cells with 10 pg/ml human IL-6 (human IL-6): < 0.1 pM

B15: 133A9 (antibody, V domains shown)
VH: B14 VH with S31T, D56E, S70T, W73V, P89A, A90E
VL: B14 VL with S9L, T13S, S17T, L41P, K68I, A82S
IC50, growth of IL-6-dependent 7TD1 cells with 75 pg/ml human IL-6 (human IL-6): < 1 pM

B16: 133E5 (antibody, V domains shown)
VH: B14 VH with E1Q, S70T, A90E, M117Q
VL: B14 VL with T13S, S17T, T103R
IC50, growth of IL-6-dependent 7TD1 cells with 75 pg/ml human IL-6 (human IL-6): < 1 pM

B17: 133E5 (germlined variant of 68F2) (antibody, V domains shown)
VH: B14 VH with E1Q, S70T, A90E, M117Q
VL: B14 VL with T13S, S17T, T103R
IC 50, B9 cell proliferation [6]: 0.19 pM
Rel. potency, B9 cells [6]: 4.3
IC50, 7TD1 cells [7]: 0.1 pM
Potency relative to 68F2, 7TD1 cells [7]: 6.69

B18: 68F2 (parental antibody), full-length IgG1 (antibody, V domains shown)
VH: B14 VH with S31T, I50M, V69T, K83Q, A90E, M117Q
VL: QSALTQPPLVSGTPGQTVTISCAGANNDIGTYAYVSWYQQLPGTAPKLLIYKVTTRASGIPSRFSGSKSGNTASLTISGLQSEDEADYYCASYRNFNNAVFGRGTHLTVLG
IC 50, B9 cell proliferation (batch 12.9) [6]: 0.98 pM
IC 50, B9 cell proliferation (batch A8.10) [6]: 0.62 pM
average IC50 of the two 68F2 batches, B9 cells [6]: 0.8 pM
IC50, 7TD1 proliferation assay, exp 7.07 (batch 24.06) [8]: 1.36 pM
IC50, 7TD1 proliferation assay, exp 7.07 (batch #12.9) [8]: 1.46 pM
IC50, 7TD1 proliferation assay, exp 22.06 (batch #12.9) [8]: 0.803 pM
IC50, 7TD1 proliferation assay, exp 29.06 (December batch) [8]: 0.645 pM
IC50, 7TD1 proliferation assay, exp 29.06 (Large batch) [8]: 1.31 pM
IC50, 7TD1 proliferation assay, exp 29.06 (batch 24.06) [8]: 0.56 pM
IC50, 7TD1 proliferation assay, exp 29.06 (batch #12.9) [8]: 0.521 pM
Rel. Potency, 7TD1, exp 29.06 (batch 24.06) [8]: 1
IC50, 7TD1 cells (batch A8.10) [7]: 0.67 pM
Potency relative to 68F2, 7TD1 cells (batch A8.10) [7]: 1

B19: 132E7 (germlined variant of 68F2) (antibody, V domains shown)
VH: B14 VH with S70T, M117T
VL: B14 VL with A3V, S9R, T13A, S17T, M49L, I60V, T72S, S78T, T103G
IC 50, B9 cell proliferation [6]: 0.38 pM
Rel. potency, B9 cells [6]: 2.1
IC50, 7TD1 cells [7]: 0.37 pM
Potency relative to 68F2, 7TD1 cells [7]: 1.85

B20: 133H2 (germlined variant of 68F2) (antibody, V domains shown)
VH: B14 VH with S31T, V69T, S70T, M117T
VL: B14 VL with S9L, T13S, S17T, L41P, T103S
IC 50, B9 cell proliferation [6]: 0.37 pM
Rel. potency, B9 cells [6]: 2.2
IC50, 7TD1 cells (batch A1.8) [7]: 0.35 pM
IC50, 7TD1 cells (batch A9.11) [7]: 0.47 pM
Potency relative to 68F2, 7TD1 cells (batch A1.8) [7]: 1.94
Potency relative to 68F2, 7TD1 cells (batch A9.11) [7]: 1.44

B21: 68F2 antibody (antibody, V domains shown)
VH: B14 VH with S31T, I50M, V69T, K83Q, A90E, M117Q
VL: B18 VL
IC50, growth of IL-6-dependent 7TD1 cells with 75 pg/ml human IL-6 (human IL-6): < 1 pM

B22: 133H2 (antibody, V domains shown)
VH: B14 VH with S31T, V69T, S70T, M117T
VL: B14 VL with S9L, T13S, S17T, L41P, T103S
IC50, growth of IL-6-dependent 7TD1 cells with 75 pg/ml human IL-6 (human IL-6): < 1 pM

From patent publication US20220073604A1 (ARGENX BVBA, published 2022)
